How the values were obtained:
[1] = target: µMax20 (UniProt P61244); assay: BLI; settings: EMSA: 10 mM MES pH 6.0, 150 mM KCl, 1 mM MgCl2, 10% glycerol, room temperature, 1 uM DNA; BLI: global 1:1 fit, buffer not in material
[2] = target: WT Max (Homo sapiens, UniProt P61244-2 13-93, M65Nle, norleucine written as M; other non-natural residues written as X); assay: PBM; 50-200 nM protein; PBS, 2% milk, BSA, salmon testes DNA, 0.02% Triton X-100; settings: chain copies: 2; label: surface-attached array probe
WT Max, sequence (P61244 other isoform, or with tags, fused parts or gaps M65Nle): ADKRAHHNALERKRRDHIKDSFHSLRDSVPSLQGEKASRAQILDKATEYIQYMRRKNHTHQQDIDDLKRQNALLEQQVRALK

[3] = target: WT Max (synthetic µMax scaffold) (UniProt P61244 22-102); assay: BLI; EMSA: 10 mM MES pH 6.0, 150 mM KCl, 1 mM MgCl2, 10% glycerol, room temperature, 1 uM DNA; BLI: global 1:1 fit, buffer not in material; settings: chain copies: 2
WT Max (synthetic µMax scaffold), sequence (P61244 22-102): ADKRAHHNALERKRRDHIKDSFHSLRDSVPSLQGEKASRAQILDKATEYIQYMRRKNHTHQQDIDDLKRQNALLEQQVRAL

[4] = target: µMax H19Y (UniProt P61244 22-102, H28Y); assay: EMSA; 3 uM protein, 1 uM DNA; EMSA: 10 mM MES pH 6.0, 150 mM KCl, 1 mM MgCl2, 10% glycerol, room temperature, 1 uM DNA; BLI: global 1:1 fit, buffer not in material; settings: chain copies: 2
µMax H19Y, sequence (P61244 22-102 H28Y): as the sequence (P61244 22-102) above, with H7Y counted along it

µMax20, sequence (P61244 whole entry): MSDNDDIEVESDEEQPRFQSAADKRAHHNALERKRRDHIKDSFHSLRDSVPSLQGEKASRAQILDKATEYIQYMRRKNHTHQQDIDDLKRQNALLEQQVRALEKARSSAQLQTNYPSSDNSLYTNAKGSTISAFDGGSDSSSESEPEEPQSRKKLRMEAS

| Molecule | binding signal [2] | other results |
| --- | --- | --- |
| CCGGCTGACACGTGGTATTAAT (double strand) [E-box DNA probe] |  | Kd [1]: 4.38 nM |
| dBr_Jan07_33198 (dsDNA) DNA 1: GCATAAACAAGGCCGCTGTAGCGGTTCGGTGCACGTGTCTGTGTTCCGTTGTCCGTGCTG DNA 2: CAGCACGGACAACGGAACACAGACACGTGCACCGAACCGCTACAGCGGCCTTGTTTATGC | 3.33 robust z of log adjusted intensity (ours), mean of two arrays |  |
| E-box DNA probe (dsDNA) DNA 1: CCGGCTGACACGTGGTATTAAT DNA 2: ATTAATACCACGTGTCAGCCGG |  | Kd [3]: 8.1 ± 2.24 nM; binding result [4]: binds |
| dBr_Jan07_40162 (dsDNA) DNA 1: CCTTGAACCATTAGCACGTGGATATATAAATCTTACGTCTGTGTTCCGTTGTCCGTGCTG DNA 2: CAGCACGGACAACGGAACACAGACGTAAGATTTATATATCCACGTGCTAATGGTTCAAGG | 3.32 robust z of log adjusted intensity (ours), mean of two arrays |  |
| dBr_Jan07_34030 (dsDNA) DNA 1: GAACGAGGGACCGCTAGGATGCCACGTGATTAAAGTGTCTGTGTTCCGTTGTCCGTGCTG DNA 2: CAGCACGGACAACGGAACACAGACACTTTAATCACGTGGCATCCTAGCGGTCCCTCGTTC | 3.45 robust z of log adjusted intensity (ours), mean of two arrays |  |
| dBr_Jan07_37076 (dsDNA) DNA 1: AAAACGTTCCGAGCCATTTAGAAGGGGTCACGTGATGTCTGTGTTCCGTTGTCCGTGCTG DNA 2: CAGCACGGACAACGGAACACAGACATCACGTGACCCCTTCTAAATGGCTCGGAACGTTTT | 3.31 robust z of log adjusted intensity (ours), mean of two arrays |  |
